Data as given in the supplement of paper PMC9876800.

Tested on: peptide library, one residue held at a place counted from the S/T acceptor
Assay: relative phosphorylation of the sub-library (ratio to the mean residue at this position); higher = residue favoured
Details: human
Procedure, shortened: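 Purified recombinant kinases, either human or orthologue constructs, were incubated in 384-well plates with biotinylated degenerate peptide sub-libraries. Each sub-library fixed one residue at one position around a central Ser/Thr. Peptides at 50 μM and 50 μM ATP spiked with γ-32P-ATP were used for 90 min under kinase-specific conditions, and spots on streptavidin membranes were phosphorimaged and quantified by densitometry. Relative sub-library phosphorylation is expressed as a ratio to the mean residue at that position.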

PNCK, construct: Full length, sequence (Q6P2M8 whole entry, looked up): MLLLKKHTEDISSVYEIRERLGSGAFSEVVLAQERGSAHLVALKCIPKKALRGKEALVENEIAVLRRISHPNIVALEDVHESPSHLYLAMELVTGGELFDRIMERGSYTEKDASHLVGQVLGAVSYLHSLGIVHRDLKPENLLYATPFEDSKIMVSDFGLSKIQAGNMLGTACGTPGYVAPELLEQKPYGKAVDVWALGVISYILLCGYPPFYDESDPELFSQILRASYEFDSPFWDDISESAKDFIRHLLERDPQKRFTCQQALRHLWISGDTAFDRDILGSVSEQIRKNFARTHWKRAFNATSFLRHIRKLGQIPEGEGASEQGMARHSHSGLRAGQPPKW
MAPK3, construct: Full length, sequence (P27361 whole entry, looked up): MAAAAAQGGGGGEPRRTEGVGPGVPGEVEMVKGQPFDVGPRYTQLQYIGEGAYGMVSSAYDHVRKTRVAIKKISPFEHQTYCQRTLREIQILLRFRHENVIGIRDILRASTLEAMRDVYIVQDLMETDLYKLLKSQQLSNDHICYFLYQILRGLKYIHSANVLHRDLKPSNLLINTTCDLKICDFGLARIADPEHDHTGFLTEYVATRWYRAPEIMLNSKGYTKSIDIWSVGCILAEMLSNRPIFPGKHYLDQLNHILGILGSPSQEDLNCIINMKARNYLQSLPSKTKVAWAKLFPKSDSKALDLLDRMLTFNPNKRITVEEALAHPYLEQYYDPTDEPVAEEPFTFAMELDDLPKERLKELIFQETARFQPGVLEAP
PLK1, construct: Full length, sequence (P53350 whole entry, looked up): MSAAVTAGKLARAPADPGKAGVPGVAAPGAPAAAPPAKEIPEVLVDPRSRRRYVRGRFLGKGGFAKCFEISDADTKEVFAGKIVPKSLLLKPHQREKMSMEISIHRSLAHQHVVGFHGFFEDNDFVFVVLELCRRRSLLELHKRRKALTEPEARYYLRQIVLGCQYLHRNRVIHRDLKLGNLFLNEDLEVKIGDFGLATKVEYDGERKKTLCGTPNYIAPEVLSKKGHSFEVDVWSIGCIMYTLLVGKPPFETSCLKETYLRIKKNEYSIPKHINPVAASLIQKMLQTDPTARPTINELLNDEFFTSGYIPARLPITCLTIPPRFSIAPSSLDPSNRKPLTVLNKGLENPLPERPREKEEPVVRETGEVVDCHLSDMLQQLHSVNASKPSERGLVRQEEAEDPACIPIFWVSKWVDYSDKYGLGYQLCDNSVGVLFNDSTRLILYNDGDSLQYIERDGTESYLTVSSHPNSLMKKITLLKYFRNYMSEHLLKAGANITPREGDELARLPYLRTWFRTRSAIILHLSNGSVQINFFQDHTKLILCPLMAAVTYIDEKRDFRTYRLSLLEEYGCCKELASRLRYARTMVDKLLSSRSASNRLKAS

MAPK3, construct: Full length (from UniProt P27361)
relative phosphorylation
Details	at +1	at +2	at +3	at +4	at -1	at -2	at -3	at -4	at -5
A fixed	1.21	1.07	1.04	0.886	0.999	1.2	1.23	1.09	1.06
D fixed	0.0833	0.582	0.614	0.81	0.5	0.407	0.989	1.19	1.31
E fixed	0.0773	0.244	0.706	0.732	0.509	0.454	1.27	1.35	1.2
F fixed	0.372	1.1	1.15	1.22	0.802	0.577	0.808	0.946	1.09
G fixed	0.947	1.34	1.13	1.02	1	0.724	1.32	1.25	1.25
H fixed	0.217	1.26	1.11	1.07	0.975	0.461	0.949	0.914	1.11
I fixed	0.292	0.775	0.878	0.943	0.67	1.18	0.792	0.82	0.724
K fixed	0.179	1.58	0.699	1.31	1.35	0.345	0.663	0.874	0.904
L fixed	0.398	1.11	1.08	1.02	1.31	1.42	0.917	0.958	0.903
M fixed	0.276	0.987	0.971	1.09	1.39	1.29	1.08	1.09	0.907
N fixed	0.155	1.26	0.786	0.931	0.785	0.613	0.989	0.855	0.93
P fixed	11.6	0.628	1.56	0.896	1.26	4.97	1.74	1.18	1.11
Q fixed	0.159	0.788	0.736	1.01	1.1	0.82	1.05	0.942	0.975
R fixed	0.223	2.13	0.979	1.1	1.85	0.566	0.907	0.905	0.841
V fixed	0.291	0.711	0.879	0.903	0.746	1.22	0.837	0.777	0.783
W fixed	0.261	0.681	1.55	1.12	0.654	0.386	0.659	0.913	0.781
Y fixed	0.211	0.744	1.13	0.931	1.08	0.373	0.798	0.948	1.13
pThr fixed	0.338	0.662	0.663	0.75	0.373	0.941	1.23	1.23	1.41
pTyr fixed	0.323	0.38	1.01	1.08	0.444	0.686	1.29	1.37	1.25

PLK1, construct: Full length (from UniProt P53350)
relative phosphorylation
Details	at +1	at +2	at +3	at +4	at -1	at -2	at -3	at -4	at -5
A fixed	0.622	0.73	0.85	0.951	0.748	0.452	0.934	1.12	1.16
D fixed	0.419	0.677	1.4	1.35	1.62	3.98	1.1	1.47	1.34
E fixed	0.461	0.705	1.87	1.48	1.46	2.28	1.23	1.31	1.1
F fixed	3.16	1.2	0.935	0.898	0.734	0.523	1.09	0.918	0.876
G fixed	0.524	0.439	0.881	1.01	0.451	0.679	1.23	1.09	1.21
H fixed	0.809	1.28	1.13	1.01	1.03	0.861	1.47	0.981	1.1
I fixed	1.28	1.37	1.05	0.769	0.976	0.402	0.66	0.816	0.757
K fixed	0.593	0.567	0.679	0.782	1.04	0.495	0.689	0.942	1.02
L fixed	1.36	1.7	1.02	0.795	0.964	0.53	1.33	0.979	0.807
M fixed	1.72	1.4	0.972	0.932	1.2	0.505	1.38	0.95	0.802
N fixed	0.606	1.14	0.82	1.1	1.24	2.86	1.08	1	1.22
P fixed	0.246	0.421	0.579	1.41	0.42	0.33	0.785	0.836	0.936
Q fixed	0.856	0.847	0.982	0.945	1.17	0.747	0.857	0.849	0.842
R fixed	0.908	0.959	0.76	0.813	1.4	0.641	0.998	0.961	1.02
V fixed	1.06	1.14	1.02	0.701	1.03	0.373	0.552	0.791	0.813
W fixed	0.971	1.05	1.05	1.09	0.563	0.636	0.898	1.16	1.06
Y fixed	1.4	1.38	1	0.958	0.952	0.709	0.718	0.832	0.927
pThr fixed	2.54	0.971	0.987	2.29	1.02	0.627	0.945	1.03	1.3
pTyr fixed	1.02	1.47	1.67	1.8	1.98	0.802	1.01	0.88	1.33

PNCK, construct: Full length (from UniProt Q6P2M8)
relative phosphorylation
Details	at +1	at +2	at +3	at +4	at -1	at -2	at -3	at -4	at -5
A fixed	0.986	1.09	1	0.953	0.983	1.03	0.881	0.95	0.856
D fixed	0.844	1.03	1.2	1.01	1.07	0.666	0.626	0.713	0.718
E fixed	0.919	1.03	1.07	0.985	0.92	0.678	0.644	0.803	0.726
F fixed	1.37	0.986	1	1.07	0.904	0.687	0.659	0.921	1.12
G fixed	0.879	0.871	1.01	1.01	1.01	0.814	0.678	0.863	0.833
H fixed	0.96	1.28	1.02	0.93	1.06	0.826	0.799	0.921	0.839
I fixed	0.869	1.01	0.851	1.13	0.785	0.795	0.741	1.06	1.12
K fixed	1.13	0.889	0.962	0.927	1.32	1.88	1.84	1.7	1.13
L fixed	0.866	0.98	0.913	1.2	0.826	0.764	0.694	1.1	1.56
M fixed	0.938	0.893	0.876	0.982	0.869	0.855	0.668	0.986	1.07
N fixed	1.06	0.966	1.26	0.96	1.41	0.934	0.732	0.892	0.822
P fixed	0.777	0.914	0.92	1.07	1.07	0.641	0.649	0.787	0.994
Q fixed	1.19	0.947	0.976	1	0.983	1.46	0.826	1.01	0.958
R fixed	1.39	1.02	0.958	0.875	1.32	2.64	4.54	1.49	1.44
V fixed	0.873	1.02	0.885	0.991	0.795	0.8	0.679	1.05	0.956
W fixed	0.909	0.916	1.02	0.989	0.81	0.829	0.7	0.835	0.873
Y fixed	1.02	1.14	1.08	0.91	0.86	0.706	0.644	0.91	0.973
pThr fixed	1.16	1.29	1.1	1.13	0.832	0.701	0.723	0.902	0.774
pTyr fixed	1.12	2.97	1.42	1.04	1.02	0.701	0.684	0.799	0.897

PRKCA, construct: Full length (from UniProt P17252)
relative phosphorylation
Details	at +1	at +2	at +3	at +4	at -1	at -2	at -3	at -4	at -5
A fixed	0.485	0.407	0.553	0.819	0.905	0.911	0.726	1.03	1.09
D fixed	0.185	0.216	0.528	0.597	0.541	0.467	0.389	0.578	0.646
E fixed	0.21	0.16	0.526	0.514	0.472	0.407	0.439	0.724	0.643
F fixed	1.74	0.477	1.01	0.553	0.637	0.727	0.963	0.892	1.14
G fixed	0.648	0.42	1.16	1.46	2.07	1.34	1.23	1.47	1.53
H fixed	0.597	1.23	1.12	1.09	0.948	0.985	1.05	1.04	0.997
I fixed	1.64	0.499	0.602	0.58	0.389	0.413	0.501	0.59	0.646
K fixed	1.69	3.79	1.99	2.3	1.88	1.79	1.6	1.39	1.43
L fixed	1.42	0.395	0.843	0.499	0.638	0.469	0.493	0.549	0.688
M fixed	1.33	0.571	0.741	0.564	0.826	0.678	0.796	0.649	0.626
N fixed	0.561	0.86	0.918	1.04	1.39	1.08	1.2	0.915	0.877
P fixed	0.364	0.401	0.697	1.55	1.26	1.13	1.43	1.45	1.22
Q fixed	1.41	0.684	1.03	0.926	1.04	1.15	0.886	1.12	0.716
R fixed	1.87	4.65	2.46	2.26	2.01	3.23	3.44	1.59	1.84
V fixed	1.26	0.464	0.662	0.703	0.661	0.522	0.447	0.92	0.638
W fixed	0.729	0.586	0.972	0.797	0.475	1	0.589	1.28	1.38
Y fixed	0.867	1.19	1.19	0.747	0.862	0.686	0.811	0.805	0.884
pThr fixed	0.729	0.345	0.663	0.482	0.348	0.603	0.636	0.807	0.655
pTyr fixed	0.38	0.31	0.58	0.427	0.983	0.679	0.98	0.802	1.11
